From article PMC12003327

Assays:
[1] = molecular target: recombinant human integrin alphaV beta3 (αvβ3) (human) (UniProt P06756)
[2] = molecular target: recombinant human integrin alphaV beta3 (αvβ3) (human) (UniProt P06756); remark: listed apart in the source
[3] = molecular target: recombinant human integrin alphaV beta3 (αvβ3) (human) (UniProt P06756); remark: listed apart in the source

For “recombinant trimeric SARS-CoV-2 Omicron BA.1 spike protein (from UniProt P0DTC2 14-1273) (natural protein)”, the phosphorylation of FAK in HL-mECs 1 h after infection with authentic Omicron BA.1 (western blot, against not infected cells) (fold increase) [1] was 2.3, the phosphorylation of Src in HL-mECs 1 h after infection with authentic Omicron BA.1 (western blot, against not infected cells) (fold increase) [1] was 1.8 and the inhibition of FAK activation by Omicron BA.1 in HL-mECs pretreated with Heparinase III [2] was 48%. The inhibition of FAK activation by Omicron BA.1 in HL-mECs pretreated with mAb anti-αvβ3 [2] was 54%, the inhibition of FAK activation by Omicron BA.1 in HL-mECs pretreated with sodium chlorate [2] was 48% and the inhibition of pSrc activation by Omicron BA.1 in HL-mECs pretreated with Heparinase III [2] was 66%. The inhibition of pSrc activation by Omicron BA.1 in HL-mECs pretreated with mAb anti-αvβ3 [2] was 56%, the inhibition of pSrc activation by Omicron BA.1 in HL-mECs pretreated with sodium chlorate [2] was 65% and the ERK phosphorylation in HL-mECs after infection with authentic Omicron BA.1 (western blot, against not infected cells) (fold increase) [3] was 3.5. For the same substance, the inhibition of Omicron BA.1-induced ERK activation in HL-mECs pretreated with Heparinase III [3] was 56%, the inhibition of Omicron BA.1-induced ERK activation in HL-mECs pretreated with mAb anti-αvβ3 [3] was 44% and the inhibition of Omicron BA.1-induced ERK phosphorylation in HL-mECs pretreated with sodium chlorate [3] was 53%.
